Experimental data reported in PMC5409479.

How the values were obtained:
[1] = target: human GLP-1R Y69azF (human) (UniProt P43220)
[2] = target: human GLP-1R Y88azF (human) (UniProt P43220)
[3] = target: human GLP-1R V36azF (human) (UniProt P43220)
[4] = target: human GLP-1R Y101azF (human) (UniProt P43220)
[5] = target: human GLP-1R E127azF (human) (UniProt P43220)
[6] = target: human GLP-1R P90azF (human) (UniProt P43220)
[7] = target: human GLP-1R S116azF (human) (UniProt P43220)
[8] = target: human GLP-1R F80azF (human) (UniProt P43220)
[9] = target: human GLP-1R V30azF (human) (UniProt P43220)
[10] = target: human GLP-1R T35azF (human) (UniProt P43220)
[11] = target: human GLP-1R S31azF (human) (UniProt P43220)
[12] = target: human GLP-1R A70azF (human) (UniProt P43220)
[13] = target: human GLP-1R W33azF (human) (UniProt P43220)
[14] = target: human GLP-1R L118azF (human) (UniProt P43220)
[15] = target: human GLP-1R F103azF (human) (UniProt P43220)
[16] = target: human GLP-1R E68azF (human) (UniProt P43220)
[17] = target: human GLP-1R S135azF (human) (UniProt P43220)
[18] = target: human GLP-1R W91azF (human) (UniProt P43220)
[19] = target: human GLP-1R L123azF (human) (UniProt P43220)
[20] = target: human GLP-1R L89azF (human) (UniProt P43220)
[21] = target: human GLP-1R Y42azF (human) (UniProt P43220)
[22] = target: human GLP-1R S117azF (human) (UniProt P43220)
[23] = target: human GLP-1R R134azF (human) (UniProt P43220)
[24] = target: human GLP-1R L32azF (human) (UniProt P43220)
[25] = target: human GLP-1R P119azF (human) (UniProt P43220)
[26] = target: human GLP-1R R40azF (human) (UniProt P43220)
[27] = target: human GLP-1R E138azF (human) (UniProt P43220)
[28] = target: human GLP-1R S124azF (human) (UniProt P43220)
[29] = target: human GLP-1R E125azF (human) (UniProt P43220)
[30] = target: wild-type human glucagon-like peptide-1 receptor (double c-Myc, V5) (human) (UniProt P43220)
[31] = target: human GLP-1R R121azF (human) (UniProt P43220)
[32] = target: human GLP-1R W39azF (human) (UniProt P43220)
[33] = target: human GLP-1R F61azF (human) (UniProt P43220)
[34] = target: wild-type human glucagon-like peptide-1 receptor (double c-Myc, V5) (human) (UniProt P43220); remark: listed apart in the source

Chain of wild-type human glucagon-like peptide-1 receptor (double c-Myc, V5) (human) (P43220 24-463): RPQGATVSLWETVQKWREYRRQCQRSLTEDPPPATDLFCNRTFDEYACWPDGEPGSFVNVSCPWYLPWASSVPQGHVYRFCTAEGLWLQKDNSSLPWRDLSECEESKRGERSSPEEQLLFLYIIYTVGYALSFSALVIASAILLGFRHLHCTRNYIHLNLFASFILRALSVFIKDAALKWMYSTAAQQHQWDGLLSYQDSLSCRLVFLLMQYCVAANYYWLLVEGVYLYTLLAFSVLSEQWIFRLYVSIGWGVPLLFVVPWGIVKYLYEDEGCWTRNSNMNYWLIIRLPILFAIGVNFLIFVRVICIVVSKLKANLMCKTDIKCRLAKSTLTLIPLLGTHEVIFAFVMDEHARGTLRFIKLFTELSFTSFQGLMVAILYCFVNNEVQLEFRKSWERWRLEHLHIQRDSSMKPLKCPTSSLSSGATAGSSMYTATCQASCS
Chain of human GLP-1R P119azF (human) (P43220 24-463 P119F): as the sequence (P43220 24-463) above, with P96F counted along it
Chain of human GLP-1R E127azF (human) (P43220 24-463 E127F): as the sequence (P43220 24-463) above, with E104F counted along it
Chain of human GLP-1R L123azF (human) (P43220 24-463 L123F): as the sequence (P43220 24-463) above, with L100F counted along it
Chain of human GLP-1R W39azF (human) (P43220 other isoform, or with tags, fused parts or gaps): as the sequence (P43220 24-463) above, with W16F counted along it
Chain of human GLP-1R Y88azF (human) (P43220 24-463 Y88F): as the sequence (P43220 24-463) above, with Y65F counted along it
Chain of human GLP-1R Y42azF (human) (P43220 other isoform, or with tags, fused parts or gaps): as the sequence (P43220 24-463) above, with Y19F counted along it
Chain of human GLP-1R Y69azF (human) (P43220 24-463 Y69F): as the sequence (P43220 24-463) above, with Y46F counted along it
Chain of human GLP-1R R40azF (human) (P43220 other isoform, or with tags, fused parts or gaps): as the sequence (P43220 24-463) above, with R17F counted along it
Chain of human GLP-1R E138azF (human) (P43220 24-463 E138F): as the sequence (P43220 24-463) above, with E115F counted along it
Chain of human GLP-1R S116azF (human) (P43220 24-463 S116F): as the sequence (P43220 24-463) above, with S93F counted along it
Chain of human GLP-1R W91azF (human) (P43220 24-463 W91F): as the sequence (P43220 24-463) above, with W68F counted along it
Chain of human GLP-1R S31azF (human) (P43220 other isoform, or with tags, fused parts or gaps): as the sequence (P43220 24-463) above, with S8F counted along it
Chain of human GLP-1R V36azF (human) (P43220 other isoform, or with tags, fused parts or gaps): as the sequence (P43220 24-463) above, with V13F counted along it
Chain of human GLP-1R Y101azF (human) (P43220 24-463 Y101F): as the sequence (P43220 24-463) above, with Y78F counted along it
Chain of human GLP-1R A70azF (human) (P43220 24-463 A70F): as the sequence (P43220 24-463) above, with A47F counted along it
Chain of human GLP-1R R134azF (human) (P43220 24-463 R134F): as the sequence (P43220 24-463) above, with R111F counted along it
Chain of human GLP-1R T35azF (human) (P43220 other isoform, or with tags, fused parts or gaps): as the sequence (P43220 24-463) above, with T12F counted along it
Chain of human GLP-1R E125azF (human) (P43220 24-463 E125F): as the sequence (P43220 24-463) above, with E102F counted along it
Chain of human GLP-1R L32azF (human) (P43220 other isoform, or with tags, fused parts or gaps): as the sequence (P43220 24-463) above, with L9F counted along it
Chain of human GLP-1R P90azF (human) (P43220 24-463 P90F): as the sequence (P43220 24-463) above, with P67F counted along it
Chain of human GLP-1R L118azF (human) (P43220 24-463 L118F): as the sequence (P43220 24-463) above, with L95F counted along it
Chain of human GLP-1R S117azF (human) (P43220 24-463 S117F): as the sequence (P43220 24-463) above, with S94F counted along it
Chain of human GLP-1R W33azF (human) (P43220 other isoform, or with tags, fused parts or gaps): as the sequence (P43220 24-463) above, with W10F counted along it
Chain of human GLP-1R S124azF (human) (P43220 24-463 S124F): as the sequence (P43220 24-463) above, with S101F counted along it
Chain of human GLP-1R R121azF (human) (P43220 24-463 R121F): as the sequence (P43220 24-463) above, with R98F counted along it
Chain of human GLP-1R S135azF (human) (P43220 24-463 S135F): as the sequence (P43220 24-463) above, with S112F counted along it
Chain of human GLP-1R E68azF (human) (P43220 24-463 E68F): as the sequence (P43220 24-463) above, with E45F counted along it
Chain of human GLP-1R V30azF (human) (P43220 other isoform, or with tags, fused parts or gaps): as the sequence (P43220 24-463) above, with V7F counted along it
Chain of human GLP-1R F103azF (human) (P43220 24-463): as the sequence (P43220 24-463) above
Chain of human GLP-1R F80azF (human) (P43220 24-463): as above
Chain of human GLP-1R F61azF (human) (P43220 24-463): as above
Chain of human GLP-1R L89azF (human) (P43220 24-463 L89F): as the sequence (P43220 24-463) above, with L66F counted along it

With “exendin-4 (from UniProt P26349 48-87) (peptide)” the exendin-4-mediated cAMP accumulation in HEK293T cells (+azF), pEC50 [1] was 10.8 -log10 M, the exendin-4-mediated cAMP accumulation in HEK293T cells (+azF), pEC50 [2] was 10.6 -log10 M and the exendin-4-mediated cAMP accumulation in HEK293T cells (+azF), pEC50 [3] was 11.4 -log10 M. For the same substance, the exendin-4-mediated cAMP accumulation in HEK293T cells (+azF), pEC50 [4] was 11.5 -log10 M, the exendin-4-mediated cAMP accumulation in HEK293T cells (+azF), pEC50 [5] was 10.8 -log10 M and the exendin-4-mediated cAMP accumulation in HEK293T cells (+azF), pEC50 [6] was 9.9 -log10 M. For the same substance, the exendin-4-mediated cAMP accumulation in HEK293T cells (+azF), pEC50 [7] was 11.4 -log10 M, the exendin-4-mediated cAMP accumulation in HEK293T cells (+azF), pEC50 [8] was 11.3 -log10 M and the exendin-4-mediated cAMP accumulation in HEK293T cells (+azF), pEC50 [9] was 11.2 -log10 M. For the same substance, the exendin-4-mediated cAMP accumulation in HEK293T cells (+azF), pEC50 [10] was 9.5 -log10 M, the exendin-4-mediated cAMP accumulation in HEK293T cells (+azF), pEC50 [11] was 11.1 -log10 M and the exendin-4-mediated cAMP accumulation in HEK293T cells (+azF), pEC50 [12] was 9.1 -log10 M. For the same substance, the exendin-4-mediated cAMP accumulation in HEK293T cells (+azF), pEC50 [13] was 11.4 -log10 M, the exendin-4-mediated cAMP accumulation in HEK293T cells (+azF), pEC50 [14] was 11.5 -log10 M and the exendin-4-mediated cAMP accumulation in HEK293T cells (+azF), pEC50 [15] was 11.4 -log10 M. For the same substance, the exendin-4-mediated cAMP accumulation in HEK293T cells (+azF), pEC50 [16] was 11.4 -log10 M, the exendin-4-mediated cAMP accumulation in HEK293T cells (+azF), pEC50 [17] was 11.5 -log10 M and the exendin-4-mediated cAMP accumulation in HEK293T cells (+azF), pEC50 [18] was 11.5 -log10 M. The exendin-4-mediated cAMP accumulation in HEK293T cells (+azF), pEC50 [19] was 11.2 -log10 M, the exendin-4-mediated cAMP accumulation in HEK293T cells (+azF), pEC50 [20] was 9.6 -log10 M and the exendin-4-mediated cAMP accumulation in HEK293T cells (+azF), pEC50 [21] was 10.6 -log10 M. For the same substance, the exendin-4-mediated cAMP accumulation in HEK293T cells (+azF), pEC50 [22] was 11.1 -log10 M, the exendin-4-mediated cAMP accumulation in HEK293T cells (+azF), pEC50 [23] was 11.1 -log10 M and the exendin-4-mediated cAMP accumulation in HEK293T cells (+azF), pEC50 [24] was 11.1 -log10 M. For the same substance, the exendin-4-mediated cAMP accumulation in HEK293T cells (+azF), pEC50 [25] was 11.4 -log10 M, the exendin-4-mediated cAMP accumulation in HEK293T cells (+azF), pEC50 [26] was 11.5 -log10 M and the exendin-4-mediated cAMP accumulation in HEK293T cells (+azF), pEC50 [27] was 11 -log10 M. The exendin-4-mediated cAMP accumulation in HEK293T cells (+azF), pEC50 [28] was 11.4 -log10 M, the exendin-4-mediated cAMP accumulation in HEK293T cells (+azF), pEC50 [29] was 10.3 -log10 M and the exendin-4-mediated cAMP accumulation in HEK293T cells, pEC50 [30] was 10.8 -log10 M. The exendin-4-mediated cAMP accumulation in HEK293T cells (+azF), pEC50 [31] was 10 -log10 M, the exendin-4-mediated cAMP accumulation in HEK293T cells (+azF), pEC50 [32] was 10.6 -log10 M and the exendin-4-mediated cAMP accumulation in HEK293T cells (+azF), pEC50 [33] was 11.3 -log10 M.
fluorescein(Lys-20)-exendin-4 (peptide) was tested, and the cAMP accumulation in HEK293T cells transiently expressing the human GLP-1R, pEC50 [34] was 9.3 -log10 M.
